The assay concerns the target T1, GST-Capza2 (mouse, UniProt P47754 1-286).
T1 construct: Capza2, α2 subunit of F-actin capping protein, from E17 mouse cDNA; primers run from the start codon (atg gcg gat ctg) to the stop codon; pGEX-4T-2 vector; The methods of the native gel say 'Capza2', the legend 'GST-Capza2'; also called α2-subunit; the other CP subunit; source: E. coli BL21-DE3 or ArcticExpress (DE3)RP, purified (glutathione sepharose)
The experiment in a line: native gel or EMSA; 1 µM GST-Capzb2 or GST-Capzb2Δ106–140 with 1 µM GST-Capza2, 10 min at 4°C, 4%–20% Tris-glycine native gel, bands excised and identified by Western blot. To be noted: both partners purified.

B1: GST-Capzb2Δ106–140 (natural protein, mouse, UniProt P47757-2 1-272, looked up)
chain: MSDQQLDCALDLMRRLPPQQIEKNLSDLIDLVPSLCEDLLSSVDQPLKIARDKVVGKDYLLCDYNRDGDSYRSPWSNKYDPPLEDGAMPSARLRKLEVEANNAFDSKKIKGCWDSIHVVEVQEKSSGRTAHYKLTSTVMLWLQTNKSGSGTMNLGGSLTRQMEKDETVSDCSPHIANIGRLVEDMENKIRSTLNEIYFGKTKDIVNGLRSVQTFADKSKQEALKNDLVEALKRKQQC
notes: pGEX-4T-2 vector; also called deletion mutant; source: E. coli BL21-DE3 or ArcticExpress (DE3)RP, purified (glutathione sepharose)
For B1, the binding result is recorded as “binds”.

These data come from PMC2748697, “Capzb2 Interacts with β-Tubulin to Regulate Growth Cone Morphology and Neurite Outgrowth” (PLoS Biology, 2009).
